# Laboratory results published in patent publication US20120282637A1 (Sanofi, published 2012).
# Where “and” joins values, the source holds several entries; their conditions need not be identical. Equal entries are not always repeated.
# Tests used:
# RAGE-Fc [1] = target: T1, RAGE-Fc (human, UniProt Q15109 23-344, limits assumed); test: competition ELISA, RAGE-HMGB1 interaction
# T1 construct: also called hRAGE; not shown: Fc part, detected with anti-hIgG Fc-specific conjugate
# RAGE-Fc [2] = target: T1, RAGE-Fc; test: competition ELISA, hRAGE-S100B interaction
# RAGE-Fc [3] = target: T1, RAGE-Fc; test: competition ELISA, hRAGE-HMGB1 interaction
# RAGE-Fc [4] = target: T1, RAGE-Fc; test: competition ELISA, RAGE-S100A6 interaction
# RAGE-Fc [5] = target: T1, RAGE-Fc; test: competition ELISA, RAGE-S100B interaction
# RAGE-Fc [6] = target: T1, RAGE-Fc; test: competition ELISA, RAGE-Fc binding to coated S100A6
# Protocol: (§1) For the S100A6 Competition ELISA Assay wells have been coated with S100A6 at 0.5 μg/well. Thereafter, RAGE-Fc at 10 μg/mL and competing mAb at 10 μg/mL have been pre-incubated at room temperature for 30 min. The mixture was transferred into S100A6-coated plates and incubated under agitation at room temperature for 2 hours. Bound RAGE-Fc was detected with anti-hIgG Fc-specific-POD using TMB (3, 3′, 5, 5′-Tetramethylbenzidine) at 450 nm.
# For this, coating with S100A6 was carried out as detailed above. RAGE-Fc at 10 μg/mL was incubetd with competing mAb (2-fold serial dilutions starting at 100 μg/ml at room temperature for 2 hours. Binding was detected by anti IgG Fc-specific antibody peroxydase conjugate using TMB1 component HRP at 450 nm.
# [7] = target: T2, sRAGE (V-C1-C2) lot LP08062 (human, UniProt Q15109 23-331, limits assumed); test: SPR (Biacore), mAb captured on anti-mouse Fc, sRAGE 15 nM, Langmuir 1:1
# T2 construct: domain: V-C1-C2; also called Human RAGE; LP08062 (Rage)
# Protocol: The assay is based on a capture assay using immobilized anti-mouse Fc IgG on CM5 chip. For immobilization of anti-Fc antibody HBS-EP was used as running buffer. Standard amine coupling to a CM5 chip was carried out at a contact time of 11 min and a flow rate of 10 μl/min. 10 mM Sodium Acetate pH 5.0 was used as immobilization buffer. The protein concentration (anti-mouse Fc, Biacore BR-1008-38) was 100 μg/mL.
# For binding analysis SN anti-RAGE mAb diluted in running buffer at 1/10 (flow rate 5 μl/min) and sRAGE (V-C1-C2) lot LP08062 diluted in running buffer at 15 nM (flow rate 50 μl/min) was used as […], respectively (running buffer: HBS-P+BSA 12 mg/mL+CM Dextran 12 mg/mL and Regeneration solution: 10 mM Glycine pH 1.7). Langmuir 1:1 analysis was used as fitting model.
# RAGE C2 domain = target: T3, RAGE C2 domain (UniProt Q15109 235-327, limits assumed); test: domain mapping, Table 1
# T3 construct: domain: C2 domain
# RAGE V domain = target: T4, RAGE V domain (UniProt Q15109 23-121, limits assumed); test: domain mapping, Table 1
# T4 construct: domain: V domain
# rat sRAGE = rat sRAGE (rat, UniProt Q63495 23-341, limits assumed); test: ELISA, O.D. 450 nm, one bar per species; plate format and antibody concentration not given
# mouse sRAGE = mouse sRAGE (mouse, UniProt Q62151 23-340, limits assumed); test: as above
# RAGE-Fc [8] = target: T1, RAGE-Fc; test: competition ELISA against S100A6, mAb 10 µg/mL
# Protocol: as §1
# RAGE-Fc [9] = target: T1, RAGE-Fc; test: competition ELISA, hRAGE-S100A6 interaction
# RAGE V-C1 domains = target: T5, RAGE V-C1 domains (UniProt Q15109 23-233, limits assumed); test: domain mapping, Table 1
# T5 construct: domain: V-C1 domains
# T5 sequence (Q15109 23-233 limits assumed): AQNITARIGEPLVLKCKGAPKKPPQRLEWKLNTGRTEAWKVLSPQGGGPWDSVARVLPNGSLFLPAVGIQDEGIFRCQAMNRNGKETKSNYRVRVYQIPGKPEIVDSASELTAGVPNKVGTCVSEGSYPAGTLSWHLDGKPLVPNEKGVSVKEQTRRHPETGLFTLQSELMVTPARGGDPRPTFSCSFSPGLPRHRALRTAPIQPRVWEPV
# T3 sequence (Q15109 235-327 limits assumed): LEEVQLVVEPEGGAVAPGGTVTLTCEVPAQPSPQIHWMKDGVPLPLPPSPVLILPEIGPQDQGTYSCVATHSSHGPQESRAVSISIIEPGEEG
# T2 sequence (Q15109 23-331 limits assumed): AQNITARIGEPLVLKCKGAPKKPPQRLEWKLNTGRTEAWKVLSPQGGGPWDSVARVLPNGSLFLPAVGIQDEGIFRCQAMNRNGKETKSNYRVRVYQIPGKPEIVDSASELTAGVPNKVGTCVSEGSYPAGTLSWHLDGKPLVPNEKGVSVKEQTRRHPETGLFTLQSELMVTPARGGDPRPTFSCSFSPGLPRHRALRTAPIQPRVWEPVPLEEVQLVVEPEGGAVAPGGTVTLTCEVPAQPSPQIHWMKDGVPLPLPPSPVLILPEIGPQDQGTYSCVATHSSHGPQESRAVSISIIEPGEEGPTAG
# Sequence of rat sRAGE (Q63495 23-341 limits assumed): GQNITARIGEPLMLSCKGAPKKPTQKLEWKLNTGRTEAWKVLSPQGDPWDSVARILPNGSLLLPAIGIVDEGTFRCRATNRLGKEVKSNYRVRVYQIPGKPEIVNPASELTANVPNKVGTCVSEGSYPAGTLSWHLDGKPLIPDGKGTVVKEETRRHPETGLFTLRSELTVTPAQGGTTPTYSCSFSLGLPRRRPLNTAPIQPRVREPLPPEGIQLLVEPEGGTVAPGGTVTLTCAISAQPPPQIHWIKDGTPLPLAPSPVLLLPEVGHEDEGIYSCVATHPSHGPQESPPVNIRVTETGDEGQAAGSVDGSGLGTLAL
# T4 sequence (Q15109 23-121 limits assumed): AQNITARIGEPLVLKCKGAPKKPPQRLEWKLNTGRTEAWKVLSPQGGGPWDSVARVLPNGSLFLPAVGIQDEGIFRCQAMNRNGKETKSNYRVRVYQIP
# Sequence of mouse sRAGE (Q62151 23-340 limits assumed): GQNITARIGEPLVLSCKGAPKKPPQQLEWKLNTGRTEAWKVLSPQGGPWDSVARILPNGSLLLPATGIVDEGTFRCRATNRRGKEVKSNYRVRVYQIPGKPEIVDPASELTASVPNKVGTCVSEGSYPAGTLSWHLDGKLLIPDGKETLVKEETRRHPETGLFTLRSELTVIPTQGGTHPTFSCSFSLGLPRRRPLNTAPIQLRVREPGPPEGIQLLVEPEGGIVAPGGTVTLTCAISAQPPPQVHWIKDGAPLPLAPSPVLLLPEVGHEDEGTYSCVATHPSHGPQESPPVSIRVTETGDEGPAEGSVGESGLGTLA
# T1 sequence (Q15109 23-344 limits assumed): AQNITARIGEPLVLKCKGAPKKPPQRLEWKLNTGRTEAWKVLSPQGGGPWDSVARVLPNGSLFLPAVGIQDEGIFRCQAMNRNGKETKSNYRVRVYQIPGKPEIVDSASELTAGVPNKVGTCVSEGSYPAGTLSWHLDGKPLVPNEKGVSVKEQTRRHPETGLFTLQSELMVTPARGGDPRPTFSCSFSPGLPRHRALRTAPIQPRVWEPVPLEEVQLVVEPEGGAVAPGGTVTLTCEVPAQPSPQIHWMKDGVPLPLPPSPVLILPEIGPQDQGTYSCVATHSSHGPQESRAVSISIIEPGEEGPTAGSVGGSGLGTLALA
Binder,IC50 (RAGE-Fc [1]) [nM],IC50 (RAGE-Fc [2]),IC50 (RAGE-Fc [3]),IC50 (RAGE-Fc [4]) [nM],IC50 (RAGE-Fc [5]) [nM],IC50 (RAGE-Fc [6]),Kd [7] [nM],koff [7] [s⁻¹],kon [7] [M⁻¹ s⁻¹],binding result (RAGE C2 domain),binding result (RAGE V domain),binding result (rat sRAGE),binding result (mouse sRAGE),inhibitory effect (RAGE-Fc [8]) [%],maximum inhibitory effect (RAGE-Fc [9]) [%],binding result (RAGE V-C1 domains)
"Control XT-M4 (antibody, V domains shown) VH: EVQLVESGGGLVQPGRSLKLSCVVSGFTFNNYWMTWIRQTPGKGLEWVASINNSGDNTYYPDSVKDRFTISRDNAKSTLYLQMNSLRSEDTATYYCTRGGDITTGFDYWGQGVMVTVSS VL: DIQMTQSPSSMSVSLGDTITITCRASQDVGIYVNWFQQKPGKSPRRMIYRATNLADGVPSRFSGSRSGSIYSLTISSLESEDVADYHCLEFDEHPLTFGSGTKVEIK",1.79,0.208 µg/mL,0.272 µg/mL,34.6,1.37,5.2 µg/mL,,,,,,,,,,
"253 RAGE-1 (antibody, V domains shown, Anti-RAGE monoclonal antibody from a hybridoma, captured by anti-mouse Fc; also called LP08127) VH: QVQLQQSGPELVKPGASVRISCKASGYTFTDYYIHWVKQRPGQGLEWIGWIYPGNVITKYNEKFKGKATLTADKSSSTAYMQLSSLTSEDSAVYFCARYDYDYAMDYWGQGTSVTVSS VL: DIVMSQSPSSLAVSVGEKVTMSCKSSQTLLYSSNQKNYLAWYQQKPGQSLKLLIYWASTRESGVPDRFAGSGSGTDFTLTISSVKAEDLAVYYCQQYFGYPYTFGGGTKLEIK",,0.108 µg/mL,,,0.7,,0.512,0.00199,3.89e+06,no binding,no binding,,,,,
"173 RAGE-1 (antibody, V domains shown, Anti-RAGE monoclonal antibody from a hybridoma, captured by anti-mouse Fc; also called LP08107) VH: EVKLEESGGGLVQPGGSMKLSCVASGFTFSNYWMNWVRQSPEKGLEWVAEIRLKSNNYATHYAESVKGRFTISRDDSKSSVYLQMNDLRAEDPGIYYCIRDYGNYAMDHWGQGTSVTVSS VL: DIVMTQSQKFMSTSVGDRVSVTCKASQNVGTNVAWYQQKPGQSPKALIYSASYRYSGVPDRFTGSGSGTDFTLTISNVQSEDLAEYFCQQYNSYPLTFGAGTKLELK",,,,,,,0.678,0.00227,3.35e+06,no binding,,no binding (tested: not given),no binding (tested: not given),,,
"56 RAGE-1 (antibody, V domains shown, Anti-RAGE monoclonal antibody from a hybridoma, captured by anti-mouse Fc; also called LP08103; Protein 56 RAGE-1) VH: QVQLQQSGPELVKPGASVRISCKASGYTFTSYFIHWVKQRPGQGLEWIGWIYPGNVNTKYNEKFKDKATLTADKSSSTAYMQLSNLTSEDSAVYFCVRGQLGDYWGQGITLTVSS VL: DIVMTQSQKFMSTSVGDRVSVTCKASQNVGINVAWYQQKPGQSPKALIYSASYRYSGVPDRFTGSGSGTDFTLIISNVQSEDLAEYFCQQYNNYPRTFGGGTKLEIK",,,,7.7,,1.16 µg/mL and 7.73 nM,1.87,0.00539,2.89e+06,,no binding,,,> 20,≤ 50,no binding
"152 RAGE-1 (antibody, V domains shown, Anti-RAGE monoclonal antibody from a hybridoma, captured by anti-mouse Fc; also called LP08104; Protein 152 RAGE-1) VH: DVQLQESGPDLVKPSQSLSLTCTVTGYSITSGYSWHWIRQFPGNKLEWMGYIHYSGSTNYNPSLKSRISITRDTSKNQFFLQLNSVTTEDTATYYCARGGDFAYWGQGTLVTVSA VL: DIVLTQSPASLAVSLGQRATISCRASKSVGTSDSSYMHWYQQKPGQPPKLLIYLASNLESGVPARFSGSGSGTDFTLNIHPVEEEDAATYYCQHSRELYTFGGGTKLEIK",,,,,,,0.687,0.00265,3.86e+06,no binding,,,,> 20,,
"158 RAGE-1 (antibody, V domains shown, Anti-RAGE monoclonal antibody from a hybridoma, captured by anti-mouse Fc; also called LP08105) VH: QIQLVQSGPELKKPGETVKISCKASGYTFTDYSMHWVKQAPGKGLKWMGWINTETGEPTYADDFKGRFAFSLETSASTAYLLINNLKTEDTATYFCARDYLYYYAMDYWGQGTSVTVSS VL: DVVLTQTPLSLPVNIGDQASISCKSTKSLLNSDGFTYLDWYLQKPGQSPQLLIYLVSNRFSGVPDRFSGSGSGTDFTLKISRVEAEDLGVYYCFQSNYLPLTFGGGTKVEIK",1.4,0.109 µg/mL,0.29 µg/mL and 1.39 nM,45.3,0.7,6.79 µg/mL,0.629,0.00253,4.02e+06,no binding,,no binding (tested: not given),no binding (tested: not given),> 20,≤ 50,
"240 RAGE-1 (antibody, V domains shown, Anti-RAGE monoclonal antibody from a hybridoma, captured by anti-mouse Fc; also called LP08108) VH: QIQLVQSGPELKKPGETVKISCKASGYTFTDYSMHWVKQAPGKGLKWMGWINTETGEPTYADDFKGRFAFSLETSASTAYLQINNLKNEDTATYFCARDYLYYYAMDYWGQGTSVTVSS VL: DVVLTQTPLSLPVSIGDQASISCKSTKSLLNSDGFTYLDWYLQKPGQSPQLLIYLVSNRFSGVPDSFSGSGSGTDFTLKISRVEAEDLGVYYCFQSNYFPLTFGGGTTLEIK",2.1,0.123 µg/mL,0.31 µg/mL and 2.06 nM,44.4,0.8,6.66 µg/mL,0.222,0.000769,3.47e+06,no binding,,no binding (tested: not given),no binding (tested: not given),> 20,≤ 50,
"164 RAGE-1 (antibody, V domains shown, Anti-RAGE monoclonal antibody from a hybridoma, captured by anti-mouse Fc; also called LP08106; Protein 164 RAGE-1) VH: not shown VL: NIVMTQSPKSMSMSVGERVTLSCKASENVGTYVSWYQQKPEQSPKLLIYGASNRYTGVPDRFTGSGSATDFTLTISSVQAEDLADYHCGQSYTYPYTFGGGTKLEIK",,,,,,,1.13,0.00203,1.8e+06,,no binding,,,,,no binding
"166 RAGE-1 (antibody, V domains shown, Anti-RAGE monoclonal antibody from a hybridoma, captured by anti-mouse Fc; also called LP08122; LP08122D) VH: QVQLQQSGPELVKPGTSVRISCKASGYTFTSYYIHWVKQRPGQGLEWIGWIYPGNVITNYHEKFKGKASLTADKSSSTAYMQLSSLTSEDSAVYFCAREDPFAYWGQGTLVTVSA VL: NIMMTQSPSSLAVSAGEKVTMSCKSSQSVLYSSNQKNYLAWYQQKPGQSPKLLIYWASTRESGVPDRFTGSGSGTDFTLTISSVQAEDLAVYYCHQYLSSYTFGGGTKLEIK",,0.128 µg/mL,,55.5,0.8,8.33 µg/mL,0.234,0.000758,3.24e+06,no binding,no binding,no binding (tested: not given),no binding (tested: not given),> 20,≤ 50,
"326 RAGE-1 (antibody, V domains shown, Anti-RAGE monoclonal antibody from a hybridoma, captured by anti-mouse Fc; also called LP08137; Protein 326 RAGE-1) VH: EVKLVESGGGLVKPGGSLKLSCAASGFAFSSYDMSWVRQTPEKRLEWVATISSGGSYTSYPDSVQGRFTISRDNARNTLYLQMSSLRSEDTALYYCASSQLPPYAMDYWGQGTSVTVSS VL: DIVMTQSQKFMSTSVGDRVSITCKASQNVGTAVAWYQQKPGQSPKLLIYSASNRYTGVPDRFTGSGSGTDFTLTISNMQSEDLADYFCQQYSSYPLLTFGAGTKLELK",,0.097 µg/mL and 0.64 nM,,,0.6,,0.596,0.00171,2.87e+06,no binding,no binding,no binding (tested: not given),no binding (tested: not given),,,
